Laboratory results as given in publication PMC10457348.

Target: nDARC(Y)-Fc: N-terminal 60 residues of human DARC (FyB) with tyrosine at position 41, fused to the Fc region of human IgG1 (human) (UniProt Q16570)
Test: BLI; nDARC(Y)-Fc immobilised via its Fc on Anti-human IgG Fc Capture biosensors (20 ug/ml, 600 s); PvDBPII 1-120 nM; 25 C; PBS with 1 mg/ml BSA; reference biosensors with human IgG1 Fc subtracted; 1:2 binding model and steady-state analysis; mean of two experiments

Row | Substance | Kd [nM]
1 | Recombinant Plasmodium vivax Duffy Binding Protein region II, variant Salvador I (PvDBPII SalI) (from UniProt P22290 211-525) (domain or fragment) | 8.8
2 | Recombinant Plasmodium vivax Duffy Binding Protein region II, variant PvW1 (PvDBPII PvW1) (from UniProt P22290 211-525) (domain or fragment) | 12
